Data reported in paper PMC5971111 (Nature structural & molecular biology, 2018).

Assays:
Assay in all cases: […]
Sec5 = target: T1, Sec5 (S. cerevisiae, UniProt P89102 1-971)
T1 sequence: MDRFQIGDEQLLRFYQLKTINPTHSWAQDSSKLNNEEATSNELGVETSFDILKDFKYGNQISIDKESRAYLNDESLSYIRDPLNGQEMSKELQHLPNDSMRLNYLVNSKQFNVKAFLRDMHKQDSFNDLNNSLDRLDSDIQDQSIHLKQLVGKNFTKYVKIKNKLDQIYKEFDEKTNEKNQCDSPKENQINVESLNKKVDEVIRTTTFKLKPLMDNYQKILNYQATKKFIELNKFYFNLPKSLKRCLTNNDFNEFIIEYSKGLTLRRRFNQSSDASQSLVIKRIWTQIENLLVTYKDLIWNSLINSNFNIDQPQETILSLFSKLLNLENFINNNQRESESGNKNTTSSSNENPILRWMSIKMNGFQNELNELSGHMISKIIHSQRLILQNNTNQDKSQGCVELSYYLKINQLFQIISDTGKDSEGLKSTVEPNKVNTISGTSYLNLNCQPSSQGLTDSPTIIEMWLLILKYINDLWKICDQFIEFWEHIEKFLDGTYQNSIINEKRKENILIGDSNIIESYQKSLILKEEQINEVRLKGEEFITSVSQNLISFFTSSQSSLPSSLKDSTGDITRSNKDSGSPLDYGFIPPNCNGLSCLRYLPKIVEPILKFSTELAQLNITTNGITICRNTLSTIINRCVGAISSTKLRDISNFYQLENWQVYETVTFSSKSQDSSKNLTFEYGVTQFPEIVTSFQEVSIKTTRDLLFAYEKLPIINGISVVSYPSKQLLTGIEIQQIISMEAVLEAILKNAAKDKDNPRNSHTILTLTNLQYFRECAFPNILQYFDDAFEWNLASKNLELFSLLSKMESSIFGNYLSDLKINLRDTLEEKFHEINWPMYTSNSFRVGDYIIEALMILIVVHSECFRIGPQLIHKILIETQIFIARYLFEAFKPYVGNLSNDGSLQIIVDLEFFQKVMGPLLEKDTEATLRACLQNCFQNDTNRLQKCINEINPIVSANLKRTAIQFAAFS

Sec10 = target: T2, Sec10 (S. cerevisiae, UniProt Q06245 1-871)
T2 sequence: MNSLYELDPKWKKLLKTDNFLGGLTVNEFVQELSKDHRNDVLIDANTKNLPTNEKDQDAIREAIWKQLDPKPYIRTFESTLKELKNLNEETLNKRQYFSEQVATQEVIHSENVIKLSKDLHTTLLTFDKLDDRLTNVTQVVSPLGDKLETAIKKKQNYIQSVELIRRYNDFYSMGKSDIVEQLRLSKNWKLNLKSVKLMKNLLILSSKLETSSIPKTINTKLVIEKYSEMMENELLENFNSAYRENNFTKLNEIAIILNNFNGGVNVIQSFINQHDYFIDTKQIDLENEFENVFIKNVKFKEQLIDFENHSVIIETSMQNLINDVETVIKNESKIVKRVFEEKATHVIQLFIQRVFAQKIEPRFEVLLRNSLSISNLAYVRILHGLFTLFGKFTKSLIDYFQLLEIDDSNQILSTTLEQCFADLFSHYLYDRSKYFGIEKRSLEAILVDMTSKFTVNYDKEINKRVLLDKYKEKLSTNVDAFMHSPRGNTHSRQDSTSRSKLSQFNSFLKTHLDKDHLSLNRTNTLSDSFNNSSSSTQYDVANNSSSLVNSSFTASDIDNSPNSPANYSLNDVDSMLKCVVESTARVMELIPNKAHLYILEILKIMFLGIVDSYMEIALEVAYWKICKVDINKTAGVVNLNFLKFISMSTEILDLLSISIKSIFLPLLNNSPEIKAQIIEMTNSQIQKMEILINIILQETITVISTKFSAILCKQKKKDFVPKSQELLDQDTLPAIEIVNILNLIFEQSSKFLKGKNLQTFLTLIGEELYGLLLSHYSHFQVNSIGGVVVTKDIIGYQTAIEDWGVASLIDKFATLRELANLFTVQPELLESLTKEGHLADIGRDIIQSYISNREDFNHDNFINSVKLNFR

Sec15 = target: T3, Sec15 (S. cerevisiae, UniProt P22224 1-910)
T3 sequence: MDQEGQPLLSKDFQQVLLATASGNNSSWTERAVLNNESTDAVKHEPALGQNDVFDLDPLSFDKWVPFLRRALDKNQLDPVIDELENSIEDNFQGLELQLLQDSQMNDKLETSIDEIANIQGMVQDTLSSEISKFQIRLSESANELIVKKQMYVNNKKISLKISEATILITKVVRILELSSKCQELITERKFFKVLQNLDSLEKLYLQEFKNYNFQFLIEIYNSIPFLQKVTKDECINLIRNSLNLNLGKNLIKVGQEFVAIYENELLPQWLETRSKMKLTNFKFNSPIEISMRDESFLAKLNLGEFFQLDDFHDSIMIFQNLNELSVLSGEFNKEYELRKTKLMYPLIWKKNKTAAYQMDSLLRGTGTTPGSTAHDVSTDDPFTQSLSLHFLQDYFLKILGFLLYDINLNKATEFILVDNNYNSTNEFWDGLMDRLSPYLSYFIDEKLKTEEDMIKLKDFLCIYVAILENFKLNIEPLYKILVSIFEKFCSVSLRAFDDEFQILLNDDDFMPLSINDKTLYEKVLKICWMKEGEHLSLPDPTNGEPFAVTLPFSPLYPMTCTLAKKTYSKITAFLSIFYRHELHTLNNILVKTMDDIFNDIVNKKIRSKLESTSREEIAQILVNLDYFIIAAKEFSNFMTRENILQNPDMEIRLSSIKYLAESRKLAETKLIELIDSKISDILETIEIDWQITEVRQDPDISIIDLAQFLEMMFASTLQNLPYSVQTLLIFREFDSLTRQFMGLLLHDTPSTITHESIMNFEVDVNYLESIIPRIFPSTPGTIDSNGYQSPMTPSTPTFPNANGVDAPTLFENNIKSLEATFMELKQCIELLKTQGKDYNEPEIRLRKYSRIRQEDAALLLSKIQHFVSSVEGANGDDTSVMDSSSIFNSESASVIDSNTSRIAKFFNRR

Measured: binding result

B1: Exo84 (natural protein)
chain: MVEFSLKKARNNWKHVKKSASSPAKQKTPPSPAKPKQKTKKNPYSDLKDPATSYTLPTINARERSRVATSMQRRLSIHNTNYAPPTLDYSMPLPDMPNMIVPNDNVDSSHNNSSFTTENESVSSKGPSNSLNLSTADLSLNDSSYNKVPARSAMRNTVNPSGSNDPFNNSTSLRKMLANPHFNAKDFVHDKLGNASAITIDKFTSNLTDLSIQVQEEVKLNINKSYNEIMTVNNDLNVAMLELKRVRANINDLNEVLDQCTKIAEKRLQLQDQIDQERQGNFNNVESHSNSPALLPPLKAGQNGNLMRRDRSSVLILEKFWDTELDQLFKNVEGAQKFINSTKGRHILMNSANWMELNTTTGKPLQMVQIFILNDLVLIADKSRDKQNDFIVSQCYPLKDVTVTQEEFSTKRLLFKFSNSNSSLYECRDADECSRLLDVIRKAKDDLCDIFHVEEENSKRIRESFRYLQSTQQTPGRENNRSPNKNKRRSMGGSITPGRNVTGAMDQYLLQNLTLSMHSRPRSRDMSSTAQRLKFLDEGVEEIDIELARLRFESAVETLLDIESQLEDLSERISDEELMLLNLISLKIEQRREAISSKLSQSILSSNEIVHLKSGTENMIKLGLPEQALDLFLQNRSNFIQDLILQIGSVDNPTNYLTQLAVIRFQTIKKTVEDFQDIFKELGAKISSILVDWCSDEVDNHFKLIDKQLLNDEMLSPGSIKSSRKQIDGLKAVGLDFVYKLDEFIKKNSDKIR
binds: all assays above
